System: MS2 coat protein
Test: apparent KD of MS2 coat protein; designed switch direction (-1 OFF switch, 1 ON switch): -1; higher = weaker reporter binding
Procedure, shortened: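 Each step of the titration lasted 0.8–1.5 h at the lowest concentration and 10–20 min at the highest. The protein, SNAP-549-labelled MS2 coat protein, went from 0.7 or 1.5 nM doubling to 3 µM over RNA switches transcribed on Illumina chips by stalled E. coli RNA polymerase. Normalised cluster fluorescence was curve-fitted, and the per-design median over clusters is given as apparent KD.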

[1] = input ligand: microRNA oligo, concentration not stated
[2] = Eterna round: R95, input ligand: FMN 200 uM
[3] = Eterna round: R95, input ligand: microRNA oligo, concentration not stated
[4] = Eterna round: R95, input ligand: none

Row | Sequence | apparent KD of MS2 coat protein (input ligand: FMN 200 uM) [nM] | apparent KD of MS2 coat protein (input ligand: none) [nM] | apparent KD of MS2 coat protein [3] [nM] | other results
1 | GGUACUCAAAGAGUACCAAUACGAACAUGAGGAUCACCCAUGUAGGAUAUGCUACUCAAAGAGUAGCAGAAGGACGUGUAUCUU [Far Half Aptamer v3] (Eterna round: R96, puzzle: Exclusion NG 3) | 60.5 | 30.8 |  | apparent KD of MS2 coat protein [1]: 18.9 nM
2 | GGUAGAGUGGUAGGAUAUCCGUCUGUUUCAGUCGGAGAAGGACCACAGUCACUGGGUCCAUGUUUCAUGGAGACCUGAUCUACC [pwkr exNG1 F6.9] (Eterna round: R96, puzzle: Exclusion NG 1) | 26.9 | 130 |  | apparent KD of MS2 coat protein [1]: 59.7 nM
3 | GGUAUACAUGAGGAUCACCCAUGUCAGGAUAUGGCGGCGUCGGCGAAAGCGGAGGCGGCCAGAAGGGACGAUAG [AK-MS2ROC-r4-exclusion1-6.1] (Eterna round: R97, puzzle: Exclusion 1) | 70.7 | 124 |  | 
4 | GGUCUGCGAGGAUAUACAUGAGGAUCACCCAUGUGCGAGUUACUUGUGAGGUCGGUUGGUAGAAGGCGCGGACG [JL-ex3-2.10 salish99 mod] (puzzle: Exclusion 3) |  |  | 68.6 | apparent KD of MS2 coat protein [2]: 51.9 nM; apparent KD of MS2 coat protein [4]: 86.8 nM
5 | GGUCUUCAAGUCAGGAUAUCGUAUAAUAGAUAUAACGAGAAGGGACAUGAGGAUCACCCAUGUCGUCUCAUCAG [Ex4 #21] (Eterna round: R97, puzzle: Brourd's mod of Exclusion 4) | 83.9 | 27 |  | 
6 | GGUGCGUAUGUGAGGAUAUGCUGGUCCUUGGAUCAGCAGAAGGCACAUGAGGAUCACCCAUGUGGUGUCGUUCC [salish99_Bmod_Ex4_020] (puzzle: Brourd's mod of Exclusion 4) |  |  | 363 | 
7 | GGUGCGUAUGUGAGGAUAUGCUGGUCCUUGGAUCGGCAGAAGGCACAUGAGGAUCACCCAUGUGGUGUCGUACA [salish99_Bmod_ex4_087] (puzzle: Brourd's mod of Exclusion 4) |  |  | 232 | 
8 | GGUGCGUAUGUGAGGAUAUGCUGGUCCUUGGCUCAGCAGAAGGCACAUGAGGAUCACCCAUGUGGUGUCGUACC [salish99_Bmod_Ex4_027] (puzzle: Brourd's mod of Exclusion 4) |  |  | 229 | 
9 | GGUGCGUAUGUGAGGAUAUGCUGGUCCUUGGCUCGGCAGAAGGCACAUGAGGAUCACCCAUGUGGUGUCGUACG [salish99_Bmod_ex4_063] (puzzle: Brourd's mod of Exclusion 4) |  |  | 36.5 | apparent KD of MS2 coat protein [2]: 249 nM; apparent KD of MS2 coat protein [4]: 54.4 nM
10 | GGUGCGUUUGUGAGGAUAUGCUGGUCCUUGGAUCAGCAGAAGGCACAUGAGGAUCACCCAUGUGGUGUCGUUCC [salish99_Bmod_Ex4_037] (puzzle: Brourd's mod of Exclusion 4) |  |  | 137 | 
11 | GGUGCGUUUGUGAGGAUAUGCUGGUCCUUGGUUCGGCAGAAGGCACAUGAGGAUCACCCAUGUGGUGUCGCUCC [salish99_Bmod_Ex4_050] (puzzle: Brourd's mod of Exclusion 4) |  |  | 36.4 | 
12 | GGUGGGAGGGAUGUGGUGUACAUGAGGAUCACCCAUGUGGUGGACGGGCGCGGGUGCGGGUUUUUUGUUCGUCUUGU [High Nucleotide Full Attached] (Eterna round: R97, puzzle: Sensor, turn-off variant 1) | 131 | 159 |  | 
13 | GGUGUGAGGCAGGAUAUGCAAUAAGUAAGUAAAGCAGAAGGGUCUACAUGAGGAUCACCCAUGUGUGCGGUAGA [Ex6 #1] (Eterna round: R97, puzzle: Exclusion 6) | 249 | 163 |  | 
14 | GGUUAUUGCAAGGAUAUGCUUAUUUGAGAAAUUGCAGAAGGUGCAACAUGAGGAUCACCCAUGUUGGAUGGGUU [JR_E6_Sub016] (puzzle: Exclusion 6) |  |  | 60.7 | 
15 | GGUUAUUGCAAGGAUAUGCUUUUUUUUGAUAUUGCAGAAGGUGCAACAUGAGGAUCACCCAUGUUGGAGGGAUU [JR_E6_Sub020] (puzzle: Exclusion 6) |  |  | 32.7 | 
16 | GGUUAUUGCAAGGAUAUGCUUUUUUUUUAUAUUGCAGAAGGUGCAACAUGAGGAUCACCCAUGUUGGAGGGAUU [JR_E6_Sub021] (puzzle: Exclusion 6) |  |  | 28.9 | 
17 | GGUUGACAUGAGGAUCACCCAUGUGAGGAUAUGCGAGAGAAAAAAGUGAGGAAGAGAUGCAGAAGGCGCUGUCG [salish99-ex1_r3_016] (puzzle: Exclusion 1) |  |  | 85.8 | apparent KD of MS2 coat protein [2]: 68.5 nM; apparent KD of MS2 coat protein [4]: 121 nM
18 | GGUUGGCGAGGAUAUACAUGAGGAUCACCCAUGUCAGAGAAAAAAGUGAGGAAGAAAAGUAGAAGGCGCUGACG [salish99_ex3_r3_017] (puzzle: Exclusion 3) |  |  | 210 | apparent KD of MS2 coat protein [2]: 199 nM; apparent KD of MS2 coat protein [4]: 118 nM

Row | Sequence | apparent KD of MS2 coat protein (input ligand: FMN 200 uM) [nM] | apparent KD of MS2 coat protein (input ligand: none) [nM] | apparent KD of MS2 coat protein [3] [nM] | other results
19 | GGUUGGCGAGGAUAUACAUGAGGAUCACCCAUGUGAGAGAAAAAAGUGAGGAAGCAAAGUAGAAGGCGCUGACG [salish99_ex3_r3_034] (puzzle: Exclusion 3) |  |  | 42.8 | apparent KD of MS2 coat protein [2]: 117 nM; apparent KD of MS2 coat protein [4]: 77.8 nM
20 | GGUUGGCGAGGAUAUACAUGAGGAUCACCCAUGUGAGAGAAAAAAGUGAGUAAGAAAAGUAGAAGGCGCUGACG [salish99-ex3-33] (Eterna round: R96, puzzle: Exclusion 3) | 401 | 47.3 |  | apparent KD of MS2 coat protein [1]: 51 nM
21 | GGUUGGCGAGGAUAUACAUGAGGAUCACCCAUGUGAGAGAAAGAAGUGAGGAAGAAAAGUAGAAGGCGCUGACG [salish99_ex3_r3_005] (puzzle: Exclusion 3) |  |  | 196 | apparent KD of MS2 coat protein [2]: 542 nM; apparent KD of MS2 coat protein [4]: 59 nM
22 | GGUUGGCGAGGAUAUACAUGAGGAUCACCCAUGUGGUCCUAAAAUAAAAUAGACCUUUGUAGAAGGCGCGGGUC [salish99_ex3_r4_040] (Eterna round: R97, puzzle: Exclusion 3) | 139 | 215 |  | 
23 | GGUUGGCGAGGAUAUACAUGAGGAUCACCCAUGUGGUCCUGUGGCUGGAAAAACCUUUGUAGAAGGCGCGGGUC [salish99_ex3_r4_028] (Eterna round: R97, puzzle: Exclusion 3) | 258 | 184 |  | 
24 | GGUUUGCGGCAGGAUAUCCAUCCGCGGUGUGGUGGAGAAGGGCUGACAUGAGGAUCACCCAUGUGCGUCCUGGU [salish99_ex6_r4_021] (Eterna round: R97, puzzle: Exclusion 6) | 36.3 | 21.8 |  | 
25 | GGUUUGGGAGGAUAUGGUUUGAAUAACAUGAGGAUCACCCAUGUAAAUAGAUCUUCUAGGCCAGAAGGCUCGGGCC [-22.1, -20.72 kcal, A 28%] (Eterna round: R97, puzzle: Exclusion 5) | 46 | 27.8 |  | 
26 | GUAAACGAAGAGGAUAUUUGAUAUCAAAGCUUCAAAGAAGGCUUCACAUGAGGAUCACCCAUGUGAUCUUCAAA [Mat - Exclusion 6 - JL Mod - D18] (Eterna round: R97, puzzle: Exclusion 6) | 191 | 23.3 |  | 
27 | GUAAUUAUAUAGGAUAUCGAACUUAUUAUUUAACGAGAAGGAUGAACAUGAGGAUCACCCAUGUGGUAUCAUGG [JL-ex6-3.06] (puzzle: Exclusion 6) |  |  | 175 | 
28 | GUACUGAAGCAUAGCUUUAGUCGUACAUGAGGAUCACCCAUGUAGGAUAUGGUAGGCUUUGCUUACUAGAAGGAUAGAGUGAUC [Mat - Exclusion NG 3 - Mod of JL - D71] (Eterna round: R96, puzzle: Exclusion NG 3) | 157 | 109 |  | apparent KD of MS2 coat protein [1]: 86.8 nM
29 | GUACUGACAGGAUAUACAUGAGGAUCACCCAUGUCCUUAAGCUGACAAAAGUCAGCGAGUAGAAGGGUCUGUAC [Omei Ex3 Model Bachelor's Dilema v4] (Eterna round: R97, puzzle: Exclusion 3) | 467 | 71.9 |  | 
30 | GUAGAGUAAGGAUAUAGAGAAUAGGAUAGAAUGGUUAGAAUCUAGAAGGUACAUGAGGAUCACCCAUGUAAUGU [Excluse me!!!! 7 - Jieux - Exclusion 4] (puzzle: Exclusion 4) |  |  | 18.7 | 
31 | GUAGAGUAAGGAUAUGCAGAAUAGGAUAGAAUGGAUAGAAUGCAGAAGGUACAUGAGGAUCACCCAUGUAAUGU [Excluse me!!!! 1 - Jieux - Exclusion 4] (puzzle: Exclusion 4) |  |  | 19.3 | 
32 | GUAGAGUAAGGAUAUUGUGAAUAGGAUAGAAUGGUUAGAAGCAAGAAGGUACAUGAGGAUCACCCAUGUAAUGU [Excluse me!!!! 25 - Jieux - Exclusion 4] (puzzle: Exclusion 4) |  |  | 23.1 | 
33 | GUAGAGUCAGGAUAUACGAGAUCGAAAGAUCGGCGGUCCUUACAUGAGGAUCACCCAUGUAGAAGGGACUCUAC [Omei mod 6 to Eli's favorate candidate (ch.parushev)] (Eterna round: R97, puzzle: Exclusion 2) | 258 | 71.3 |  | 
34 | GUAGAGUCAGGAUAUACGAGAUCGAAAGAUCUUUGAUCCUUACAUGAGGAUCACCCAUGUAGAAGGGACUCUAC [Omei mod 2 to Eli's favorate candidate (ch.parushev)] (Eterna round: R97, puzzle: Exclusion 2) | 513 | 43.2 |  | 
35 | GUAUAACAUGUAGGAUAUGCAUGGCGAAGCUAUGCAGAAGGACAUGAGGAUCACCCAUGUAAUAGCGUCUGCGUACAGAUGCAA [Mat - Exclusion NG 1 - Mod of JL - D91] (Eterna round: R96, puzzle: Exclusion NG 1) | 186 | 38.7 |  | apparent KD of MS2 coat protein [1]: 29.4 nM
